Data: publication PMC2821790

Legend:
[1] = target: T1, HMGA1(2/3) peptide (AT-hooks DBD2 and DBD3) (UniProt P17096 49-91); assay: EMSA
T1 chain: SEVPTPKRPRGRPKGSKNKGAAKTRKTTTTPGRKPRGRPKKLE

[2] = target: T2, 15N-G11,G20,G37-HMGA1(2/3) peptide (UniProt P17096 49-91); assay: NMR
T2 chain: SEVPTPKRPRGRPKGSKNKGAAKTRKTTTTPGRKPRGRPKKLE

Sp1 = Sp1 (UniProt P08047 1-785); assay: EMSA
Chain of Sp1 (P08047 whole entry): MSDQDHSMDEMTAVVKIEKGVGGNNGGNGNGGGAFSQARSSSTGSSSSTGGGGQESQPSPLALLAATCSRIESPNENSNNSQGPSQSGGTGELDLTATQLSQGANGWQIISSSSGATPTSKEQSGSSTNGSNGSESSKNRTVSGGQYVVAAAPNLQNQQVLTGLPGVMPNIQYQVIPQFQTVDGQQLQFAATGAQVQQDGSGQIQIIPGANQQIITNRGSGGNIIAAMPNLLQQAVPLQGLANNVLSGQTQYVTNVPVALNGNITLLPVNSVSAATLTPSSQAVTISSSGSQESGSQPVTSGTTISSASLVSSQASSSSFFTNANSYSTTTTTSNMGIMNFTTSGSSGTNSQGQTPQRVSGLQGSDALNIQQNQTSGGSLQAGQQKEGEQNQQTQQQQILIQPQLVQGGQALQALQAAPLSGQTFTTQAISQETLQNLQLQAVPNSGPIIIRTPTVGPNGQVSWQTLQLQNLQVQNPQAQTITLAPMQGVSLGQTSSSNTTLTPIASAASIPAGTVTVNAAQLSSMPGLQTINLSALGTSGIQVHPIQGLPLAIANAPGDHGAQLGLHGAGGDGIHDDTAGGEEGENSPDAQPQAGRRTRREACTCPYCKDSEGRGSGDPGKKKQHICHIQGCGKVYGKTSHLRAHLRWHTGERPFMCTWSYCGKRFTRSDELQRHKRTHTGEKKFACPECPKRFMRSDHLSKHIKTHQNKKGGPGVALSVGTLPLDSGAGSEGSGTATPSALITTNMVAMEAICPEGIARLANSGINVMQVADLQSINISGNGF

B1: NOS2 Oct EMSA probe (-65/-50) (dsDNA)
DNA 1: AGTTATGCAAAATAGC
DNA 2: GCTATTTTGCATAACT
binding result [1]: binds

B2: NOS2 Oct 16-bp DNA (NMR) (dsDNA)
DNA 1: AGTTATGCAAAATAGC
DNA 2: GCTATTTTGCATAACT
binding result [2]: binds

B3: Sp1 consensus probe (dsDNA)
DNA 1: ATTCGATCGGGGCGGGGCGAGC
DNA 2: GCTCGCCCCGCCCCGATCGAAT
binding result (Sp1): binds
